Laboratory results from patent US20220281997A1 (NANJING GENSCRIPT BIOTECH, published 2022).

B1: R166.F2 (antibody, V domains shown)
VH: QSVEESGGRLVTPGTPLTLTCTASGFTISSHDMSWVRQAPGKGLEWIGYIYYGSGSTDYASWAEGRFTITRNTNENTVTLKMTSLTTEDTATYFCARGGYVGGGVDAFDPWGPGTVVTVSS
VL: AYDMTQTPASVEVAVGGTVTIKCQASQSIYTYLSWYQQKPGQPPKLLIYRASTLASGVSSRFKGSGSGTDFTLTISGAQCADAATYYCQQGALSSNIHNTFGGGTEVVVKG
notes: Rabbit monoclonal; also called clone R166.F2
B2: R166.H8 (antibody, V domains shown)
VH: QSVEESGGRLVTPGTPLTLTCTVSGFSLSSFAMSWVRQAPGKGLEWIGIIYATGGTRDYATWAAGRFTISKTSTTVGLKMTSPTTEDTATYFCARDRSPDYSAAFNLWGQGTLVTVSS
VL: IVMTQTPSSKSVPVGDTVTINCQASESVYSNNHLAWFQQKPGQPPKLLIYSASTLESGVPSRFKGSGSGTQFTLTISGVQCDDAATYYCAGYKSSDTDGTSFGGGTEVVVKG
notes: Rabbit monoclonal; also called clone R166.H8
B3: R166.E7 (antibody, V domains shown)
VH: QSVEESGGRLVTPGTPLTLTCTVSGFSLSSFAMSWVRQAPGKGLEWIGIIYTGGTRDYATWAKGRFTISKTSTTVDLKMTSPTTEDTATYFCARDRSPDYSAAFNLWGQGTLVTVSS
VL: B2 VL
notes: Rabbit monoclonal; also called clone R166.E7
B4: R166.G8 (antibody, V domains shown)
VH: LEQSGGGAEGGLVKPGGSLELCCKASGFSLSNIYWICWVRQAPGTGLEWIGCINSGSNSYTYYANWVDGRFTLSRDIDQSTGCLQLNSLTAADTAMYYCARDRDAADTSDWSLNFWGQGTLVTVSS
VL: QVLTQTPSSVSAAVGGTVTISCQSSDSVNNDNWLAWYQQKPGQPPKLLIYQASKLASGVPSRFSGSGSGTQFTLTISGVQCDDAANYYCQGTGYSSTWYVAFGGGTEVVVKG
notes: Rabbit monoclonal; also called clone R166.G8
B5: R166.G2 (antibody, V domains shown)
VH: QSLEESGGRLVKPDETLTITCTVSGIDLSSDAMSWVRQAPGKGLEWIGLINRYGNTYYASWAKGRFTISKTSTTVDLKVTSLTTEDTATYFCARYGTDSDFYFLDLWGQGTLVTVSS
VL: DIVMTQTPASVSEPVGGTVTIKCQASQSIYSYLSWYQQKPGQRPKLLIYKASKLVSGVPSRFRGSGSGTEFTLTISDLECADAASYYCQSDWLISSNGNTFGGGTEVVVTG
notes: Rabbit monoclonal; also called clone R166.G2
B6: R166.D1 (antibody, V domains shown)
VH: QSVEESGGRLVKPDESLTLTCTVSGFSLSNYDMIWVRQAPGKGLEWIGVIYPTGTTYYANWVKGRFTISKTSTTVGLLITSPTTEDTATYFCARKPILYVDSSGWYIDLWGQGTLVTVSS
VL: AYDMTQTPSSVSAAVGGTVSIKCQASENINNYLSWYQQKPGQPPKLLIYQASRLASAVPSRFKGSGSGTQFTLTIDDLECADAATYYCQQGHSVSNDVGNVFGGGTEVVVKG
notes: Rabbit monoclonal; also called clone R166.D1
B7: R166.G10 (antibody, V domains shown)
VH: QSVEESGGRLVTPGTPLTLTCTVSGFSLSSSAVSWVRQAPGKGLEYIGIIGSGGSTYYASWVNGRFTISKTSTTVDLKMTSLTAADTATYFCARYGGNSGGYDSFNLWGQGTLVTVSS
VL: DVVMTQTPASVSEPVGGTVTIKCQASQSIYSHLSWYQQKPGQPPKLLIHGASTLASGASSRFKASGSGTEFTLTISDLECADAATYYCQCTAGTSIYGNAFGGGTEVVVRG
notes: Rabbit monoclonal; also called clone R166.G10
B8: R166.G3 (antibody, V domains shown)
VH: QSVEESGGRLVTPGTPLTLTCTVSGIDLSRYAMGWVRQAPGKGLEYIGIIGYGGNTNYANWAKGRFTISKTSSTTVDLKMTSPTTEDTATYFCARDNKSGGNNGYPYYGLDLWGPGTLVTVSS
VL: AYDMTQTPASVEVPVGGTVTINCQASQSISSHLAWYQQKRGQPPKVLIYYASTLASGVSSRFKGSGSGTEYTLTISGVECADAATYFCHQSYSGSDVDNTFGGGTEVVVRG
notes: Rabbit monoclonal; also called clone R166.G3

Target: T1, AS675 VHH (camel-derived)
T1 construct: One of the 10 different camel-derived nanobodies; not shown: His tag (VHH-His)
Assay: indirect ELISA, VHH coated
Protocol: (§1) The ELISA plate was coated with 10 different VHHs at […] in 100 μl/well of PBS at 4° C. overnight, respectively; the plate was washed with PBS-T (0.05% Tween) and blocked with 200 μl/well of PBST containing 1% BSA at 37° C. for 0.5 hours; the blocking solution was aspirated and discarded, and 100 μl of 1 μg/ml purified antibodies were added to the first well, diluted in a 3-fold gradient for a total of 11 test concentration gradients and incubated at room temperature for 1 hour; the plate was washed three times with PBST and incubated with 100 μl/well of goat anti-rabbit IgG conjugated with horseradish peroxidase (GenScript Goat Anti-Rabbit IgG Antibody (H&L) [HRP], pAb; CAT #: A00098) at 37° C. for 0.5 hours; the plate was washed five times with PBST, and then a TMB color developing solution was added; and the plate was incubated in the dark at room temperature for 15 minutes. The reaction was stopped by adding 50 μl of 1 M HCl stop solution. The plate was read at 450 nm using a microplate reader; and the binding abilities of 15 clones to VHH-His were obtained (as shown in FIGS. 6a and 6b). […] On one hand, the affinities of the antibody of the same camel-derived nanobody to different camel-derived nanobodies were different; on the other hand, the affinities of different antibodies of camel-derived nanobodies to the same camel-derived nanobody were different. However, on the whole, all the 15 purified antibodies can be recognized with 10 different camel-derived nanobodies.

T1 sequence (VHH, as listed by the source): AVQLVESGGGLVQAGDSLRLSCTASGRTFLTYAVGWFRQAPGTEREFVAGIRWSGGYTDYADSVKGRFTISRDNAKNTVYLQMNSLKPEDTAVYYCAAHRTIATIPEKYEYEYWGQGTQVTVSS

Binding result, binds:
B1
B2
B3
B4
B5
B6
B7
B8

Target: T2, AS200 VHH (camel-derived)
T2 construct: One of the 10 different camel-derived nanobodies; not shown: His tag (VHH-His)
Assay: indirect ELISA, VHH coated
Protocol: as §1

T2 sequence (VHH, as listed by the source): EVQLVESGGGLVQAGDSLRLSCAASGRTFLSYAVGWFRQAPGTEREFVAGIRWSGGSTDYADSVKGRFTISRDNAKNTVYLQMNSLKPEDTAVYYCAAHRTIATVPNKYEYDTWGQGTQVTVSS

Binding result, binds:
B1
B2
B3
B4
B5
B6
B7
B8

Target: T3, AS154 VHH (camel-derived)
T3 construct: One of the 10 different camel-derived nanobodies; not shown: His tag (VHH-His)
Assay: indirect ELISA, VHH coated
Protocol: as §1

T3 sequence (VHH, as listed by the source): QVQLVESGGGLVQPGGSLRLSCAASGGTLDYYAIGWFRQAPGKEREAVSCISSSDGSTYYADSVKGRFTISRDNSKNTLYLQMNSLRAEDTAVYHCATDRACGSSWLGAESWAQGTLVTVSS

Binding result, binds:
B1
B2
B3
B4
B5
B6
B7
B8

Target: T4, AS325 VHH (camel-derived)
T4 construct: One of the 10 different camel-derived nanobodies; not shown: His tag (VHH-His)
Assay: indirect ELISA, VHH coated
Protocol: as §1

T4 sequence (VHH, as listed by the source): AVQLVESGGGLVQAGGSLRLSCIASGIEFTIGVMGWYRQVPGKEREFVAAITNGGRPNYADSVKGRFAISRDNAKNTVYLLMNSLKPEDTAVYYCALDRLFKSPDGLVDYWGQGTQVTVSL

Binding result, binds:
B1
B2
B3
B4
B5
B6
B7
B8

Target: T5, AS988 VHH (camel-derived)
T5 construct: One of the 10 different camel-derived nanobodies; not shown: His tag (VHH-His)
Assay: indirect ELISA, VHH coated
Protocol: as §1

T5 sequence (VHH, as listed by the source): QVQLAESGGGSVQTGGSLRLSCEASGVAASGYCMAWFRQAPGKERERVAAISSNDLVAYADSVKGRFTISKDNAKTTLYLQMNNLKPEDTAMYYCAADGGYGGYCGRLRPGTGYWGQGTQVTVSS

Binding result, binds:
B1
B2
B3
B4
B5
B6
B7
B8

Target: T6, AS519 VHH (camel-derived)
T6 construct: One of the 10 different camel-derived nanobodies; not shown: His tag (VHH-His)
Assay: indirect ELISA, VHH coated
Protocol: as §1

T6 sequence (VHH, as listed by the source): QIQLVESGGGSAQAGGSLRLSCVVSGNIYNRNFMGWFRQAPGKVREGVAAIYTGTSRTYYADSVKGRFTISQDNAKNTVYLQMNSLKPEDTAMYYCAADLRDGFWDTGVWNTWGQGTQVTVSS

Binding result, binds:
B1
B2
B3
B4
B5
B6
B7
B8

Target: T7, AS656 VHH (camel-derived)
T7 construct: One of the 10 different camel-derived nanobodies; not shown: His tag (VHH-His)
Assay: indirect ELISA, VHH coated
Protocol: as §1

T7 sequence (VHH, as listed by the source): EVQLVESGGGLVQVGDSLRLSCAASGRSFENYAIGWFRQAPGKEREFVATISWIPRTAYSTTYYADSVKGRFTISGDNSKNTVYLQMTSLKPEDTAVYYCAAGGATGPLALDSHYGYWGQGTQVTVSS

Binding result, binds:
B1
B2
B3
B4
B5
B6
B7
B8

Target: T8, AS588 VHH (camel-derived)
T8 construct: One of the 10 different camel-derived nanobodies; not shown: His tag (VHH-His)
Assay: indirect ELISA, VHH coated
Protocol: as §1

T8 sequence (VHH, as listed by the source): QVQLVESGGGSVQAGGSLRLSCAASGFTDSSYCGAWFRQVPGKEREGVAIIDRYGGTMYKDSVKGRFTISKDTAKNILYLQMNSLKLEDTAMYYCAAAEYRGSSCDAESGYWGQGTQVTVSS

Binding result, binds:
B1
B2
B3
B4
B5
B6
B7
B8

Target: T9, AS673 VHH (camel-derived)
T9 construct: One of the 10 different camel-derived nanobodies; not shown: His tag (VHH-His)
Assay: indirect ELISA, VHH coated
Protocol: as §1

T9 sequence (VHH, as listed by the source): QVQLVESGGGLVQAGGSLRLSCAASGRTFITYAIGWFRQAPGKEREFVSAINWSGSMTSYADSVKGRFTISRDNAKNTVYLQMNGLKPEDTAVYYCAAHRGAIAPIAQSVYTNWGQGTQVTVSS

Binding result, binds:
B1
B2
B3
B4
B5
B6
B7
B8

Target: T10, AS587 VHH (camel-derived)
T10 construct: One of the 10 different camel-derived nanobodies; not shown: His tag (VHH-His)
Assay: indirect ELISA, VHH coated
Protocol: as §1

T10 sequence (VHH, as listed by the source): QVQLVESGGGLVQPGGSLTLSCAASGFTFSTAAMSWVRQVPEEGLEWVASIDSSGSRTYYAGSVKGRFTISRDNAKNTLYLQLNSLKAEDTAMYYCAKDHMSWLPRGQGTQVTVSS

Binding result, binds:
B1
B2
B3
B4
B5
B6
B7
B8

Target: T11, His-tag camel-derived nanobody AS718 VHH-His (camel-derived)
T11 construct: Immunogen; recombinantly expressed with a C-terminal His tag; also called immunogen AS718; immunogen AS718 VHH-His; not shown: C-terminal His tag
Assay: indirect ELISA, AS718 VHH-His coated, hybridoma supernatant
Protocol: The rabbit spleen was extracted and homogenized to produce a single-cell suspension, and a single-cell suspension of myeloma cells was prepared at the same time. 1.0×10⁸ splenocytes were fused with 1.2×10⁵ myeloma cells by electrofusion; the fused cells were resuspended in 100 ml of DMEM/10% FBS culture medium containing hybridoma selective agents, thymidine, hypoxanthine and aminopterin, and transferred to a 150×96-well plate in a volume of 100 μl with a pipette; and the plate was incubated at 37° C. in 6% CO₂. After 9 days of incubation, the indirect ELISA was used to evaluate the binding ability of the antibody in the supernatant to VHH-His, indicating the presence of the antibody to VHH-His.
The ELISA plate was coated with 100 μl/well of 0.5 μg/ml VHH-His or His protein in PBS at 4° C. overnight; the plate was washed with PBS-T (0.05% Tween20) and blocked with 200 μl/well of PBST containing 1% BSA at 37° C. for 0.5 hours; the blocking solution was aspirated and discarded, and 100 μl of hybridoma cell culture supernatant was added to each well and then incubated at room temperature for 1 hour; after the incubation, the supernatant was discarded, and the plate was washed three times with PBST and incubated with 100 μl/well of goat anti-rabbit IgG conjugated with horseradish peroxidase (GenScript Goat Anti-Rabbit IgG Antibody (H&L) [HRP], pAb; CAT #: A00098) at 37° C. for 0.5 hours; the plate was washed five times with PBST, and then a TMB color developing solution was added; and the plate was incubated in the dark at room temperature for 15 minutes. The reaction was stopped by adding 50 μl of 1 M HCl stop solution. The plate was read at 450 nm using a microplate reader. In FIG. 3, by the mode of indirect ELISA, immunogen AS718 VHH-His was used to coat the ELISA detection plate, and the titers of the supernatant stock solutions of 15 parent clones were detected by OD450 reading, and the cross-reactions thereof with the His-tag protein were detected at the same time to exclude non-specific combinations. In the experiment, the positive serum was used as a positive control for immunogen AS718 VHH-His, and the Anti-His antibody was used as a positive control for detection target His-tag protein in the reverse screening. The detection value greater than 0.5 was determined to be positive, and the detection value less than 0.2 was determined to be negative.

T11 sequence (VHH, as listed by the source): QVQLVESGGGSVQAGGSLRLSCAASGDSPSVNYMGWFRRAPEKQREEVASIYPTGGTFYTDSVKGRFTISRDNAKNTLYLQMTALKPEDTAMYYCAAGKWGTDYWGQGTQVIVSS

Binding result, binds:
B1
B2
B3
B4
B5
B6
B7
B8
